The target in series [1] is T1, TneSSB (Thermotoga neapolitana DSM 4359, UniProt D1M925 1-142).
T1 sequence: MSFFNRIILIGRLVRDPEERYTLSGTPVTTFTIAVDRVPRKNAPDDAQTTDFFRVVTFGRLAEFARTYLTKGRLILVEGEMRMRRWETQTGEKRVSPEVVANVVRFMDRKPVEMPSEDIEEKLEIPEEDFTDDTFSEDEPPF
As to the kind of experiment: fluorescence titration (Trp quenching); 2 mM NaCl; cooperative affinity omega*K; site size 68 +/- 2 nt; quench 95%; 20 mM Tris-HCl pH 7.5, 1 mM EDTA, 2 or 100 mM NaCl, 25°C; EMSA 10 pmol oligo (1.5 pmol M13) with 10-200 pmol SSB in 10 µl, 2% agarose in TAE; titration 1 nM SSB with 0-0.8 nM (dT)76. The note with it: protein: recombinant; tags: none stated (NdeI/HindIII in pET30Ek/LIC, start and stop codon in primers); chain copies: 4; single strand. (Mobility shift assays separate free from complexed probe on a gel.)

Series [2] has as its target T2, TmaSSB (Thermotoga maritima MSB8 (DSM 3106), UniProt Q9WZ73 1-141).
T2 sequence: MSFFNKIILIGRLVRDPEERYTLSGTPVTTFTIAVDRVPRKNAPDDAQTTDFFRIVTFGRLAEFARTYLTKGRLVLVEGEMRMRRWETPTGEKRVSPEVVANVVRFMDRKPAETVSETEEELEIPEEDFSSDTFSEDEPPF
The description is as above. The note with it: protein: recombinant; tags: none stated (NdeI/HindIII in pET30Ek/LIC, start and stop codon in primers); chain copies: 4; single strand.

In series [3] the target is T1, TneSSB. As to the kind of experiment: EMSA (agarose); 2 or 100 mM NaCl; one tetramer; 20 mM Tris-HCl pH 7.5, 1 mM EDTA, 2 or 100 mM NaCl, 25°C; EMSA 10 pmol oligo (1.5 pmol M13) with 10-200 pmol SSB in 10 µl, 2% agarose in TAE; titration 1 nM SSB with 0-0.8 nM (dT)76. To be noted: protein: recombinant; tags: none stated (NdeI/HindIII in pET30Ek/LIC, start and stop codon in primers); chain copies: 4; label: 5'-fluorescein (EMSA); single strand.

The target of series [4] is T2, TmaSSB. The description is as above. The note with it: protein: recombinant; tags: none stated (NdeI/HindIII in pET30Ek/LIC, start and stop codon in primers); chain copies: 4; label: 5'-fluorescein (EMSA); single strand.
Series [5] concerns the molecule itself. As to the kind of experiment: SEC; FPLC analytical gel filtration on a Superdex HR 75 column, calibrated with bovine albumin, ovalbumin, carbon anhydrase and cytochrome C; oligomeric state in solution. Background: SEC sorts molecules by how far they enter the pores of the column.
The target of series [6] is T1, TneSSB. Put plainly: EMSA (agarose); 2 or 100 mM NaCl; two tetramers at high protein; 20 mM Tris-HCl pH 7.5, 1 mM EDTA, 2 or 100 mM NaCl, 25°C; EMSA 10 pmol oligo (1.5 pmol M13) with 10-200 pmol SSB in 10 µl, 2% agarose in TAE; titration 1 nM SSB with 0-0.8 nM (dT)76. The note with it: protein: recombinant; tags: none stated (NdeI/HindIII in pET30Ek/LIC, start and stop codon in primers); chain copies: 4; label: 5'-fluorescein (EMSA); single strand.

Series [7] has as its target T2, TmaSSB. Described as above. The note with it: protein: recombinant; tags: none stated (NdeI/HindIII in pET30Ek/LIC, start and stop codon in primers); chain copies: 4; label: 5'-fluorescein (EMSA); single strand.

As a reminder, the stoichiometry N is a count of units in the complex or per binding partner.

B1: (dT)76 (titration) (ssDNA)
DNA: TTTTTTTTTTTTTTTTTTTTTTTTTTTTTTTTTTTTTTTTTTTTTTTTTTTTTTTTTTTTTTTTTTTTTTTTTTTT
As for B1, the binding result with TneSSB [1] and in the series with TmaSSB [2] was “binds” in each case.

B2: (dT)76 (ssDNA)
DNA: TTTTTTTTTTTTTTTTTTTTTTTTTTTTTTTTTTTTTTTTTTTTTTTTTTTTTTTTTTTTTTTTTTTTTTTTTTTT
On to B2, for which the binding result with TneSSB [3] and with TmaSSB [4] was “binds” each time.

B3: single-stranded DNA-binding protein from Thermotoga maritima (TmaSSB) (natural protein, UniProt Q9WZ73 1-141, looked up)
chain: MSFFNKIILIGRLVRDPEERYTLSGTPVTTFTIAVDRVPRKNAPDDAQTTDFFRIVTFGRLAEFARTYLTKGRLVLVEGEMRMRRWETPTGEKRVSPEVVANVVRFMDRKPAETVSETEEELEIPEEDFSSDTFSEDEPPF
notes: ssb gene amplified with primers from the ATG start codon to the TGA stop codon, cloned between NdeI and HindIII of pET30Ek/LIC (pETSSBTma); No tag is mentioned; cloning between NdeI and HindIII with the gene's own stop codon probably leaves out the vector's tags (surmised); also called T. maritima SSB; source: E. coli BL21(DE3)pLysS, purified (heat treatment at 80°C, QAE-cellulose, …)
In the case of B3, the “stoichiometry N” value in series [5] was determined as 4.

B4: single-stranded DNA-binding protein from Thermotoga neapolitana (TneSSB) (natural protein, UniProt D1M925 1-142, looked up)
chain: MSFFNRIILIGRLVRDPEERYTLSGTPVTTFTIAVDRVPRKNAPDDAQTTDFFRVVTFGRLAEFARTYLTKGRLILVEGEMRMRRWETQTGEKRVSPEVVANVVRFMDRKPVEMPSEDIEEKLEIPEEDFTDDTFSEDEPPF
notes: ssb gene amplified with primers from the ATG start codon to the TGA stop codon, cloned between NdeI and HindIII of pET30Ek/LIC (pETSSBTne); No tag is mentioned; cloning between NdeI and HindIII with the gene's own stop codon probably leaves out the vector's tags (surmised); also called T. neapolitana SSB; source: E. coli BL21(DE3)pLysS, purified (heat treatment at 80°C, QAE-cellulose, …)
As for B4, the “stoichiometry N” value in series [5] was determined as 4.

B5: (dT)120 (ssDNA)
DNA: TTTTTTTTTTTTTTTTTTTTTTTTTTTTTTTTTTTTTTTTTTTTTTTTTTTTTTTTTTTTTTTTTTTTTTTTTTTTTTTTTTTTTTTTTTTTTTTTTTTTTTTTTTTTTTTTTTTTTTTT
Consider B5, for which the binding result in the series with TneSSB [6] and with TmaSSB [7] was “binds” in each case. Consider TTTTTTTTTTTTTTTTTTTTTTTTTTTTTTTTTTT (ssDNA) [(dT)35], for which the binding result in the series with TneSSB [3] and with TmaSSB [4] was “binds” throughout.

B6: (dT)60 (ssDNA)
DNA: TTTTTTTTTTTTTTTTTTTTTTTTTTTTTTTTTTTTTTTTTTTTTTTTTTTTTTTTTTTT
As to B6, the binding result with TneSSB [3] and with TmaSSB [4] was “binds” each time.
